Experimental data reported in the DeepSol protein solubility set.

assay: soluble on expression in E. coli; label from the status in PepcDB or PDB records

| Sequence | soluble on expression in E. coli |
| --- | --- |
| GAKPNQKVIAEILKYPSPGKNPEAKVVKVLGDLDDPSIDLPSVIVKHDLPEPGEFPEEVIREANAIPARVRKKDLVGRKDLRDKVIVTIDGEDAKDFDDAISVEKLPNGNYLLGVHIADVSHYVKEGSALDQEAFKRGTSVYLIDTVIPMLPFRLSNGICSLVEGKDRLTMSVEMEIDRDGRVVRYDVYPSVIKSKKRMIYERVNEFLEDPSSMKEYEPFKDLIYNAVELAEILREARRKRGAILDIESDEVKVILDENGQVVDIVPRKRGIAEKLIEEFMIRANETVAEIFDHAGLPFMYRVHEEPDPETIFQLKNYLEAMGIRAKFSHKIHPGMLQKLLEKVKDHPLRSSVERLLVRSMKRAMY | soluble |
| SLPRDENMPLIQVIDDDVSMLILLKDALESKGWMVMANTEPEKAVDQFFDMNPDCLIIDVNLPGKSGFHVLEDIQKHTNKKFIPKLMISIMNDRETRIKAYRLGADDFISKPIDLEEFLIKVERHLDRKQIFDQSVLIDELTQVYNRRFLKDSLKRYLKELERSNQYFSIAVLDLDHFKQVNDMYGHPAGDRILSEFAQYLKDHVRIGDIVFRYGGEEFILLLPRTNDHDSKEVVSRLLSGFSSRTFIEGGAELKMTFSAGVYMVHDPSATVAEAIKTADQALYKAKRNGRARVESANKLIGGHSRKVLNVSVIDDDAIIRTMLMKILQSMEFEHTSLDIQVYEDGQKFLQSGRMEQKGEHFLILDGIMPVMDGTEVLQKVKENRNASRVHVLMLTGRKTEYDIARALKLGADDYVTKPFSITELQARIHRLIQRMSEG | soluble |
| MGSDKIHHHHHHMKHGILVAYKPKGPTSHDVVDEVRKKLKTRKVGHGGTLDPFACGVLIIGVNQGTRILEFYKDLKKVYWVKMRLGLITETFDITGEVVEERECNVTEEEIREAIFSFVGEYDQVPPAYSAKKYKGERLYKLAREGKIINLPPKRVKIFKIWDVNIEGRDVSFRVEVSPGTYIRSLCMDIGYKLGCGATAVELVRESVGPHTIEESLNVFEAAPEEIENRIIPLEKCLEWLPRVVVHQESTKMILNGSQIHLEMLKEWDGFKKGEVVRVFNEEGRLLALAEAERNSSFLETLRKHERNERVLTLRKVFNTR | not soluble |
| MAHHHHHHVDDDDKMVSTTPAAGVLDTSVFIATESGRQLDEALIPDRVATTVVTLAELRVGVLAAATTDIRAQRLATLESVADMETLPVDDDAARMWARLRIHLAESGRRVRINDLWIAAVAASRALPVITQDDDFAALDGAASVEIIRV | soluble |
| MGSDKIHHHHHHMPRTILKDEHWTRLKPILLELNIYDKGNLRNTVEGVLYRMRVGCPWRDLPEHFGKPNTVYKAYQRWFRSNKLIALFALLIKDSDCEWVFIDGTHIKAHQHSSIGHENMQGISKSVAGRATKIHLAVDAHGNPITFILSDGTTHDVKVAPDLIDKDLSDTDILCADKGYDSDALRTHIKQAGCFNNIPRRRNTKSTNNHMDWHLYKTRHLVENAFAKLKHYRAVATRFDKLKQSYENTVALACAYLWLKL | not soluble |
| MDADEGQDMSQVSGKESPPVSDTPDEGDEPMPIPEDLSTTSGGQQSSKSDRVVASNVKVETQSDEENGRACEMNGEECAEDLRMLDASGEKMNGSHRDQGSSALSGVGGIRLPNGKLKCDICGIICIGPNVLMVHKRSHTGERPFQCNQCGASFTQKGNLLRHIKLHSGEKPFKCHLCNYACRRRDALTGHLRTHSVIKEETNHSEMAEDLCKIGSERSLVLDRLASNVAKRKSSMPQKFLGDKGLSDTPYDSSASYEKENEMMKSHVMDQAINNAINYLGAESLRPLVQTPPGGSEVVPVISPMYQLHKPLAEGTPRSNHSAQDSAVENLLLLSKAKLVPSEREASPSNSCQDSTDTESNNEEQRSGLIYLTNHIAPHARNGLSLKEEHRAYDLLRAASENSQDALRVVSTSGEQMKVYKCEHCRVLFLDHVMYTIHMGCHGFRDPFECNMCGYHSQDRYEFSSHITRGEHRFHMS | not soluble |
| MDDPASYELDPSIAQRVKFNSAGLVPAVVQSTDGEVLMLAWMDAHALAYTIATRKGTYFSRSRNEYWIKGLTSGHTQQVTGLQLDCDGDTVLMTVVQQGGACHTGDRTCFDADVII | not soluble |
| MITQEMKDLINNQLAMVATVDAKGQPNIGPKRSMRLWDDKTFIYNENTDGQTRINIEDNGKIEIAFVDRERLLGYRFVGTAEIQTEGAYYEAAKKWAQGRMGVPKAVGIIHVERIFNLQSGANAGKEINSESN | not soluble |
| ENIEVHMLNKGAEGAMVFEPAYIKANPGDTVTFIPVDKGHNVESIKDMIPEGAEKFKSKINENYVLTVTQPGAYLVKCTIHYAMGMIALIAVGDSPANLDQIVSAKKPKIVQERLEKVIASAK | soluble |
| MGDIDYQAIEFAYTKCADQQRDTPARHCVIVVGAGPVGLTTALDLARQGLRVVVLDDDYRLSTGSRAICFAKRTLEIWDRLGVGQRMVDKGVSWNVGKVFFRDQEVWRFDLLPEPGHRRPAFINLQQYYAEGYLHELASAQPGIELRWKSKVVGVAQQADGVQVTVDTPDGAYALHVDWLVACDGARSPVRKLLDLETHGRVFKDRFLIADVKMAADYPAERWFWFDPPFHPNQSVLLHMQPDNVWRIDFQLGWNADPVEAVKPENVLPRIRALLGPDADFELEWVSVYTFACERMDHFRHGRVVFAGDSAHRVSPFGARGANSGVQDAENLAWKLKLVLAGHAPESLIDSYAAEREYAADENILNSSRSTDFITPKSEVSRTFRNAVLNLARQHPFARTLVNSGRLSVPAAYADSPLNTPDSDPYAGTMRPGAVALDAPVRADAQPGWWLSQLDGGFALALFCGAETPRADMLDALRALQQDEVPVQPILVCDAGAAPAAAPAGVRVVEDSEGWLARRYDARPGTCYLIRPDQHIAARFRAFDAQAVRRALARAIGRALEHHHHHH | not soluble |
| MAITVSIELNRDLEIPASYDEVFDLLADVPKSASHFPKVDKLVDLGNNAYRWEMEKVGVDKHAIQSVYACTYHADKEAGKITWSPIKGEGNGVVSGSWTLSAKGDNATAVKFQTSAELTVPLPSLLKLAISPVIKHEFNSLVDTYMANLKKAFLEHHHHHH | soluble |
| MGSDKIHHHHHHMLVKKISPRGYCYGVVDAMKLAQQAALNDNLPRPIHILGMIVHNAHVTREFERMGVLTVDGPDRLEALETIKEGTVIFTAHGISPAVYARAAEKKLTVVDATCPDVTRTHDLIRSVVADDYEVIYVGKHGHPEPEGAVGVAPEHVHLIEKVEDIEALPAHLADKKIIVTNQTTMSQWDVQALMEHVRKKYPHVEVHNEICNATQVRQEAVAEQAGDCDLVIVVGDPRSNNSNRLAQVSFDIAATPAHRIGDLTELDLSWLDGVNQVGVTSGASTPTPITKKVIDFLQQYDPADISTHDKTPFLELRRILPKVKIL | not soluble |
| GAMDIVVNDDLSCRFLEGFNTRDALCKKISMNTCDEGDPFFVADLGDIVRKHETWKKCLPRVTPFYAVKCNDDWRVLGTLAALGTGFDCASNTEIQRVRGIGVPPEKIIYANPCKQISHIRYARDSGVDVMTFDCVDELEKVAKTHPKAKMVLRISTDDSLARCRLSVKFGAKVEDCRFILEQAKKLNIDVTGVSFHVGSGSTDASTFAQAISDSRFVFDMGTELGFNMHILDIGGGFPGTRDAPLKFEEIAGVINNALEKHFPPDLKLTIVAEPGRYYVASAFTLAVNVIAKKVTPGVQTDVGAHAESNAQSFMYYVNDGVYGSFNCILYDHAVVRPLPQREPIPNEKLYPSSVWGPTCDGLDQIVERYYLPEMQVGEWLLFEDMGAYTVVGTSSFNGFQSPTIYYVVSGLPDHVVRELKSQKS | soluble |
| MGSDKIHHHHHHMADFSNQIITIKKGLDLPIAGEPRQIIESGNKPSQVAILGEEYVGLKPTMLVEVGDKVKKGQPLFEDKKTKGVLFTAPASGEIVAINRGDRRVLQSVVIGCDGLDVNEQIRFDILPDVISLSRQVVQDQLVSSGLWTALRTRPFSRVPALDSQPAGIFVTAIDTNPLAADPRLIIAEQLEAFKTGLQVLTRLTEGKVYLCQDKGDAIACDVSPNLEIRRFTGVHPAGLAGTHIHFTLPVSLERQVWHIGYQDVIAYGKLFQTGELYTDRIIALGGPSVLNPRLLRTQLGAELSVLVADEIKPGNNRVVSGSVLSGHTAAGVHDFLGRFHNQVSVLAEDAQHQVLPWVRGGSDKFSITRAVTSRLFGASKRFEFTTHQGGSQRAMMAFGQLDRVMPLDILPTLLVRDLVVRDTDEAQALGALELDEEDLALCTFVCPGKYDFGKELRACLDVIEREG | not soluble |
